The source of these data is the RNAGym collection of RNA variant scans (doi:10.7554/elife.80360).

B1: CPEB3 Ribozyme (parent)
chain: GGGGGCCACAGCAGAAGCGUUCACGUCGCGGCCCCUGUCAGAUUCUGGUGAAUCUGCGAAUUCUGCUGU

This data set covers variants of B1. The data set is described as follows: self-cleavage, relative activity (ratio to wild type); higher = more cleavage; co-transcriptional.
On to GGGGGCCACAGCAGAAGCGUUCCCGUUGCGGCCCCUGUCAGAUUCUGGUGAAUCUGCGAAUUCUGCUGU [A23C C27U], for which the self-cleavage is 0.358. The same measure for GGGGGCCACAGCAGAAGCGUUCCCGUCGCGGCCCCUGUCAGAUUCUGGUAAAUCUGCGAAUUCUGCUGU [A23C G50A]: 0.946; for GGGGGCCACAGCAGAAGCGUUUACGUCGCGGCCCCUGUCAGAUUCUGGUGAAUCUGCGAAUUCUGCUGC [C22U U69C]: 0.601; for GGGGGCCACAGCAGAAGCGUUUACGUCGCGGCCCCUGUCAGAUUCUGGUGAAUCUGCGAAUUCUGCUGA [C22U U69A]: 0.384. In the case of GGGGGCCACAGCAGAAGCGUUUACGUCGCGGCCCCUGUCAGAUUCUGGUGAAUCUGCGAAUUCUGCUGG [C22U U69G] it was 0.462. In the case of GGGGGCCACAGCAGAAGCGUUCCCGUCGCGGCGCCUGUCAGAUUCUGGUGAAUCUGCGAAUUCUGCUGU [A23C C33G] it was 0.439.

On to GGGGGCCACAGCAGAAGCGUUCCCGUCGCGGCUCCUGUCAGAUUCUGGUGAAUCUGCGAAUUCUGCUGU [A23C C33U], for which the self-cleavage came out at 0.937. The same measure for GGGGGCCACAGCAGAAGCGUUCCCGUCGCGGCCCCUGUCAGAUUCUGGUGAAUCUGUGAAUUCUGCUGU [A23C C57U]: 0.406; for GGGGGCCACAGCAGAAGCGUUCCCGUCGCGGCCCCUGUCAGAUUCUGGUGAAUCUGAGAAUUCUGCUGU [A23C C57A]: 0.339; for GGGGGCCACAGCAGAAGCGUUCCCGUCGCGGCCCCUGUCAGAUUCUGGUGAAUCUGGGAAUUCUGCUGU [A23C C57G]: 0.412. The same measure for GGGGGCCACAGCAGAAGCGUUCCCGUCGCGGCCCCUGUCAGAUUCUGGUGAAUCUGCGAAUUAUGCUGU [A23C C63A]: 0.738; for GGGGGCCACAGCAGAAGCGUUCCCGUCGCGGCCCCUGUCAGAUUCUGGUGAAUCUGCGAAUUGUGCUGU [A23C C63G]: 0.573; for GGGGGCCACAGCAGAAGCGUUCCCGUCGCGGCCCGUGUCAGAUUCUGGUGAAUCUGCGAAUUCUGCUGU [A23C C35G]: 0.417. GGGGGCCACAGCAGAAGCGUUCCCAUCGCGGCCCCUGUCAGAUUCUGGUGAAUCUGCGAAUUCUGCUGU [A23C G25A]: the self-cleavage stood at 0.203. For the variant GGGGGCCACAGCAGAAGCGUUUACGUCGCGGCCCCUGUCAGAUUCUGGUGAAUCUGCGAAUUCUGCAGU [C22U U67A], the self-cleavage is 0.369. The same measure for GGGGGCCACAGCAGAAGCGUUCCCGUCGCGUCCCCUGUCAGAUUCUGGUGAAUCUGCGAAUUCUGCUGU [A23C G31U]: 0.528. As to GGGGGCCACAGCAGAAGCGUUCCCGUCGCGCCCCCUGUCAGAUUCUGGUGAAUCUGCGAAUUCUGCUGU [A23C G31C], the self-cleavage was 0.186. The same measure for GGGGGCCACAGCAGAAGCGUUCCCGUCGUGGCCCCUGUCAGAUUCUGGUGAAUCUGCGAAUUCUGCUGU [A23C C29U]: 0.389; for GGGGGCCACAGCAGAAGCGUUCCCGUCGAGGCCCCUGUCAGAUUCUGGUGAAUCUGCGAAUUCUGCUGU [A23C C29A]: 0.603; for GGGGGCCACAGCAGAAGCGUUUACGUCGCGGCCCCUGUCAGAUUCUGGUGAAUCGGCGAAUUCUGCUGU [C22U U55G]: 0.169.

For GGGGGCCACAGCAGAAGCGUUUACGUCGCGGCCCCUGUCAGAUUCUGGUGAAUCAGCGAAUUCUGCUGU [C22U U55A], the self-cleavage was 0.182. On to GGGGGCCACAGCAGAAGCGUUUACGUCGCGGCCCCUGUCAGAUUCUGGUGAAUCCGCGAAUUCUGCUGU [C22U U55C], for which the self-cleavage was 0.157.

As for GGGGGCCACAGCAGAAGCGUUUACGUCGCGGCCCCUGUCAGAGUCUGGUGAAUCUGCGAAUUCUGCUGU [C22U U43G], the self-cleavage stood at 0.222.

For the variant GGGGGCCACAGCAGAAGCGUUUACGUCGCGGCCCCUGUCAGAAUCUGGUGAAUCUGCGAAUUCUGCUGU [C22U U43A], the self-cleavage came out at 0.217. With GGGGGCCACAGCAGAAGCGUUUACGUCGCGGCCCCUGUCAGAUUCAGGUGAAUCUGCGAAUUCUGCUGU [C22U U46A], the self-cleavage was found to be 0.29. In the case of GGGGGCCACAGCAGAAGCGUUUACGUCGCGGCCCCUGUCAGAUUCUGGUGAAUCUGCGAAUACUGCUGU [C22U U62A] it was 0.167; in that of GGGGGCCACAGCAGAAGCGUUUACGUCGCGGCCCCUGUCAGAUUCUGGUGAAUCUGCGAAUGCUGCUGU [C22U U62G], 0.207; in that of GGGGGCCACAGCAGAAGCGUUCCCGUCGCGGCCCCUGUCAGAUUCUGGUGAUUCUGCGAAUUCUGCUGU [A23C A52U], 0.917. For the variant GGGGGCCACAGCAGAAGCGUUCCCGUCGCGGCCCCUGUCAGAUUCUGGUGACUCUGCGAAUUCUGCUGU [A23C A52C], the self-cleavage was determined as 0.921. For GGGGGCCACAGCAGAAGCGUUCCCGUCGCGGCCCCUGUCAGAUUCUGGUGAGUCUGCGAAUUCUGCUGU [A23C A52G], the self-cleavage came out at 0.963. In the case of GGGGGCCACAGCAGAAGCGUUCCCGUCGCGGGCCCUGUCAGAUUCUGGUGAAUCUGCGAAUUCUGCUGU [A23C C32G], the self-cleavage is 0.329.

On to GGGGGCCACAGCAGAAGCGUUCCCGUCGCGGACCCUGUCAGAUUCUGGUGAAUCUGCGAAUUCUGCUGU [A23C C32A], for which the self-cleavage was found to be 0.59.

As for GGGGGCCACAGCAGAAGCGUUCCCGUCGCCGCCCCUGUCAGAUUCUGGUGAAUCUGCGAAUUCUGCUGU [A23C G30C], the self-cleavage was 0.58. The same measure for GGGGGCCACAGCAGAAGCGUUCCCGUCGCAGCCCCUGUCAGAUUCUGGUGAAUCUGCGAAUUCUGCUGU [A23C G30A]: 0.743; for GGGGGCCACAGCAGAAGCGUUUACGUCGCGGCCCCUGGCAGAUUCUGGUGAAUCUGCGAAUUCUGCUGU [C22U U38G]: 0.141.

For GGGGGCCACAGCAGAAGCGUUCCCGUCGCGGCCCCUGUCAGAUUCUGGUGAAUCUGCGGAUUCUGCUGU [A23C A59G], the self-cleavage amounted to 0.96. Consider GGGGGCCACAGCAGAAGCGUUCCCGUCGCGGCCCCUGUCAGAUUCUGGUGAAUCUGCGCAUUCUGCUGU [A23C A59C], for which the self-cleavage turned out to be 0.69. In the case of GGGGGCCACAGCAGAAGCGUUCCCGUCGCGGCCCCUGUCAGAUUCUGGUGAAUGUGCGAAUUCUGCUGU [A23C C54G] it was 0.921. In the case of GGGGGCCACAGCAGAAGCGUUCCCGUCGCGGCCCCUGUCAGAUUCUGGUGAAUUUGCGAAUUCUGCUGU [A23C C54U] it was 0.967.
